{
  "source": "patent US20100041074A1",
  "about": "(FORERUNNER PHARMA RESEARCH, published 2010)",
  "binders": {"B1": {"name": "toxin-labeled GA-20 single-chain Fv antibody (GA20-PE40) (scFv)", "scFv": "MDHHHHHHHHHHKLEVQLQQSGPELVKPGASVKISCKTSGYTFTEYTMHWVKQSHGKSLEWIGGINPNNGGTSYNQKFKGKATLTVDKSSSTAYMELRSLTSEDSAVYYCAREKYGNYYAMDYWGQGTSVTVSSGGGGSGGGGSGGGGSDIVMSQSPSSLAVSAGEKVTMSCKSSQSLLNSRTRKNYLAWYQQKPGQSPKLLIYWASTRESGVPDRFTGSGSGTDFTLTISSVQAEDLAVYYCKQSYNLRTFGGGTKLEIKEFGGAPEFPKPSTPPGSSGLEGGSLAALTAHQACHLPLETFTRHRQPRGWEQLEQCGYPVQRLVALYLAARLSWNQVDQVIRNALASPGSGGDLGEAIREQPEQARLALTLAAAESERFVRQGTGNDEAGAANADVVSLTCPVAAGECAGPADSGDALLERNYPTGAEFLGDGGDVSFSTRGTQNWTVERLLQAHRQLEERGYVFVGYHGTFLEAAQSIVFGGVRARSQDLDAIWRGFYIAGDPALAYGYAQDQEPDARGRIRNGALLRVYVPRSSLPGFYRTSLTLAAPEAAGEVERLIGHPLPLRLDAITGPEEEGGRLETILGWPLAERTVVIPSAIPTDPRNVGGDLDPSSIPDKEQAISALPDYASQPGKPPDYKDDDDKKDEL", "notes": "also called GA20scFv-PE40; toxin-labeled GA-20 scFv antibody"}, "B2": {"name": "GC-18 antibody (antibody, IgG1, V domains shown)", "VH": "DVRLQESGPGQVKPSQTVSLTCSVTGYSITNGNHWWNWIRQVSGSKLEWIGYISSSGSTDSNPSLKSRISITRDTSKNQLFLQLNSVTTEDIATYYCARGYYFDYWGQGTTLTVSS", "VL": "DIVLTQSPASLAVSLGQSVTISCRASESVEYYGTSLMQWYQQKPGQPPKLLIYATSNVESGVPARFSGSGSGTDFSLNIHPVEEDDIAMYFCQQSRKLPSTFGGGTKLEIK", "notes": "Mouse monoclonal from hybridoma, subtype G1 (IgG1)"}, "B3": {"name": "toxin-labeled GD17 single-chain antibody (GD17scFv-PE40) (scFv)", "scFv": "MDHHHHHHHHHHKLQVQLQQSGAELARPGASVKLSCKASGYTFTSYWMHWVKQRPGQGLEWIGAIYPGDGDTRYTQKFKGKATLTADKSSSTAYMQLSSLASEDSAVYYCASGITAVADYWGQGTTLTVSSGGGGSGGGGSGGGGSDVVMTQTPLSLPVSLGDQASISCRSSQSLVHSNGNTYLHWYLQKPGQSPKLLIYKVSNRFSGVPDRFSGSGSGTDFTLKISRVEAEDLGVYFCSQSTHVPLTFGAGTKLELKEFGGAPEFPKPSTPPGSSGLEGGSLAALTAHQACHLPLETFTRHRQPRGWEQLEQCGYPVQRLVALYLAARLSWNQVDQVIRNALASPGSGGDLGEAIREQPEQARLALTLAAAESERFVRQGTGNDEAGAANADVVSLTCPVAAGECAGPADSGDALLERNYPTGAEFLGDGGDVSFSTRGTQNWTVERLLQAHRQLEERGYVFVGYHGTFLEAAQSIVFGGVRARSQDLDAIWRGFYIAGDPALAYGYAQDQEPDARGRIRNGALLRVYVPRSSLPGFYRTSLTLAAPEAAGEVERLIGHPLPLRLDAITGPEEEGGRLETILGWPLAERTVVIPSAIPTDPRNVGGDLDPSSIPDKEQAISALPDYASQPGKPPDYKDDDDKKDEL", "notes": "also called GA17_scFv-PE40"}, "B4": {"name": "GD-4 antibody (antibody, IgG1, V domains shown)", "VH": "EVQLVETGGGLVQPKGSLKLSCAASGFTFNTNAMNWVRQAPGKGLEWVARIRSKSNNYAAYYADSVKDRFTISRDDSQSMLYLQMNNLKTEDTAMYYCVREGYGYSLYFDYWGQGTTLTVSS", "VL": "DIVMTQSPTFLAVTASKKVTINCTASESLYSSKHKVHYLAWYQKKPDQSPKLLIYGASNRYIGVPDRFTGSGSGTDFTLTISSVQVEDLTHYYCAQFYSYPLTFGAGTKLELK", "notes": "as for B2"}, "B5": {"name": "GA-20 antibody (antibody, IgM, V domains shown)", "VH": "EVQLQQSGPELVKPGASVKISCKTSGYTFTEYTMHWVKQSHGKSLEWIGGINPNNGGTSYNQKFKGKATLTVDKSSSTAYMELRSLTSEDSAVYYCAREKYGNYYAMDYWGQGTSVTVSS", "VL": "DIVMSQSPSSLAVSAGEKVTMSCKSSQSLLNSRTRKNYLAWYQQKPGQSPKLLIYWASTRESGVPDRFTGSGSGTDFTLTISSVQAEDLAVYYCKQSYNLRTFGGGTKLEIK", "notes": "Mouse monoclonal from hybridoma, subtype M (IgM); light chain cloned with a kappa primer"}, "B6": {"name": "GD-17 antibody (antibody, IgG1, V domains shown)", "VH": "QVQLQQSGAELARPGASVKLSCKASGYTFTSYWMHWVKQRPGQGLEWIGAIYPGDGDTRYTQKFKGKATLTADKSSSTAYMQLSSLASEDSAVYYCASGITAVADYWGQGTTLTVSS", "VL": "DVVMTQTPLSLPVSLGDQASISCRSSQSLVHSNGNTYLHWYLQKPGQSPKLLIYKVSNRFSGVPDRFSGSGSGTDFTLKISRVEAEDLGVYFCSQSTHVPLTFGAGTKLELK", "notes": "as for B2"}},
  "key": {"[1]": {"molecular_target": "T1, GST fused GRP78 protein (GST-GRP78) purified from E. coli (human, UniProt P11021 19-654)", "T1 construct": "also called GRP78-GST fused protein; not shown: glutathione S-transferase (GST) encoded by the E. coli expression vector pGEX-6P-1 (Amersham Pharmacia), with the vector", "experiment": "ELISA, plate coated with GST-GRP78 (1 µg/ml), HisTrap fractions diluted 40-fold, anti-flag detection"}, "[2]": {"molecular_target": "T2, GRP78 localized on the cell surface of human cancer cells (human, UniProt P11021 19-654)", "T2 construct": "Endogenous GRP78 on untransfected human cancer cell lines (DU145, 22Rv1, LoVo, LNcap, MCF7 and others); also called GRP78 on the surface of DU145 cells; surface-located GRP78", "experiment": "FACS on prostate cancer cell lines DU145 and 22Rv1, hybridoma culture supernatant"}, "MBP-GRP78 (376-415)": {"molecular_target": "MBP-GRP78 (376-415) (human, UniProt G3I8R9 376-415 (Cricetulus griseus entry))", "experiment": "ELISA, plate coated with MBP-GRP78 (376-415) (1 µg/ml), hybridoma culture supernatant"}, "[3]": {"molecular_target": "T2, GRP78 localized on the cell surface of …", "experiment": "cell-based or functional assay"}, "[4]": {"molecular_target": "T1, GST fused GRP78 protein (GST-GRP78) …", "experiment": "ELISA, plate coated with GST-GRP78 (1 µg/ml), anti-flag detection; same value told for specimens stored at 4° C., left at 37° C. overnight, or frozen and thawed"}, "[5]": {"molecular_target": "T3, GRP78 protein (amino acids 19-654) purified from E. coli (human, UniProt P11021 19-654)", "T3 construct": "Cut from the GST fusion with PreScission Protease and gel filtered; also called glucose-regulated protein 78; BiP", "experiment": "ELISA, plate coated with GRP78 protein purified from E. coli, hybridoma culture supernatant"}, "[6]": {"molecular_target": "GRP78 expressed in hamster ovary cells (DG44), cell lysate (hamster, UniProt G3I8R9 19-654)", "experiment": "western blot of NP40 lysate of DG44 cells with GA-20 antibody (2 µg/ml)"}, "[7]": {"molecular_target": "T4, GRP78 expressed in human cells (cell lysate) (human, UniProt P11021 19-654)", "T4 construct": "Endogenous GRP78 in lysates of human cell lines (DU145, MRC5 and others) after SDS-PAGE and blotting; also called GRP78 expressed in DU145 cells; GRP78 protein in cell lysates", "experiment": "western blot, DU145 cell lysate, antibody 2 µg/ml"}, "[8]": {"molecular_target": "T1, GST fused GRP78 protein (GST-GRP78) …", "experiment": "western blot, GST fused GRP78 protein (0.1 ug), antibody 2 µg/ml"}, "[9]": {"molecular_target": "T5, GRP78 expressed in mouse cells (Ba/F3, NIH3T3), cell lysate (mouse, UniProt P20029 20-655)", "experiment": "western blot of NP40 lysates of Ba/F3 and NIH3T3 cells with GA-20 antibody (2 µg/ml)"}, "GST-GRP78 (376-415)": {"molecular_target": "T6, GST-GRP78 (376-415) (human, UniProt G3I8R9 376-415 (Cricetulus griseus entry))", "T6 construct": "not shown: glutathione S-transferase (GST) encoded by the E. coli expression vector pGEX-6P-1, with the vector's linker", "experiment": "western blot of GST fused GRP78 fragments (345-385, 376-415, 406-445)"}, "[10]": {"molecular_target": "T2, GRP78 localized on the cell surface of …", "experiment": "FACS on DU145 cells, antibody 10 µg/ml"}, "[11]": {"molecular_target": "T4, GRP78 expressed in human cells (cell …)", "experiment": "western blot of cell lysates of human cell lines with GD-17 antibody (2 µg/ml)"}, "[12]": {"molecular_target": "T5, GRP78 expressed in mouse cells (Ba/F3, …)", "experiment": "western blot of cell lysates of mouse cell lines with GD-17 antibody (2 µg/ml)"}},
  "data": [
    {"binder": "B1", "values": [
      {"measurement": "binding result", "setting": "[1]", "result": "binds"}
    ]},
    {"binder": "B2", "values": [
      {"measurement": "binding result", "setting": "[2]", "result": "binds"},
      {"measurement": "binding result", "setting": "MBP-GRP78 (376-415)", "result": "binds"}
    ]},
    {"binder": "B3", "values": [
      {"measurement": "cytotoxic activity, EC50 on MCF7 and 22Rv1 cells", "setting": "[3]", "result": "2 to 4", "unit": "nM"},
      {"measurement": "EC50", "setting": "[4]", "result": "~1.3", "unit": "nM"}
    ]},
    {"binder": "B4", "values": [
      {"measurement": "binding result", "setting": "[2]", "result": "binds"},
      {"measurement": "binding result", "setting": "MBP-GRP78 (376-415)", "result": "binds"}
    ]},
    {"binder": "B5", "values": [
      {"measurement": "binding result", "setting": "[5]", "result": "binds"},
      {"measurement": "binding result", "setting": "[6]", "result": "binds"},
      {"measurement": "binding result", "setting": "[7]", "result": "binds"},
      {"measurement": "binding result", "setting": "[8]", "result": "binds"},
      {"measurement": "binding result", "setting": "[9]", "result": "binds"},
      {"measurement": "binding result", "setting": "GST-GRP78 (376-415)", "result": "binds"},
      {"measurement": "binding result", "setting": "[10]", "result": "binds"}
    ]},
    {"binder": "B6", "values": [
      {"measurement": "binding result", "setting": "[2]", "result": "binds"},
      {"measurement": "binding result", "setting": "[11]", "result": "binds"},
      {"measurement": "binding result", "setting": "MBP-GRP78 (376-415)", "result": "binds"},
      {"measurement": "binding result", "setting": "[12]", "result": "binds"}
    ]}
  ]
}
